Results from US20040048327A1 (GEORGIA TECH RESEARCH, published 2004).
Numbered stars: 1 amine (or outer) side, 2 acyl side, 3 side chain; on linkers, the order of the positions; unused ones are H or OH. Square brackets hold non-standard residues; d marks the D form. * marks the point of attachment. AAsn = aza-asparagine, NC(=O)CN(N[*:1])C(=O)[*:2]; AAsp = aza-Asp, O=C(N(CC(=O)[*:3])N[*:1])[*:2]; azaAsp = O=C(N(CC(=O)[*:3])N[*:1])[*:2]; PhPr = N-terminal cap as named (PhPr); azaAsn = NC(=O)CN(N[*:1])C(=O)[*:2]; (S,S)‑EP = not defined here; trans‑EP = not defined here; Cbz = O=C(OCc1ccccc1)*

T1: autolytically stable caspase-1 variant (D381 E) (UniProt P29466 120-404, limits assumed)
T1 sequence (looked up): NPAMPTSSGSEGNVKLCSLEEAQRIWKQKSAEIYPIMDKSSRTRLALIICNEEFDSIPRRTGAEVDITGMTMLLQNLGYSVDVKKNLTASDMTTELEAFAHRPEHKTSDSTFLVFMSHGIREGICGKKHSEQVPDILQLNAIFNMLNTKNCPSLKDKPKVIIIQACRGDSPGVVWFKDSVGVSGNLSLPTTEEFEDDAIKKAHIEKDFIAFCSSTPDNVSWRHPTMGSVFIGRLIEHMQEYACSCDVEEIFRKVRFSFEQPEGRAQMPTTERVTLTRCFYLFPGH

T2: caspase-3 (UniProt P42574 29-277, limits assumed)
T2 sequence (looked up): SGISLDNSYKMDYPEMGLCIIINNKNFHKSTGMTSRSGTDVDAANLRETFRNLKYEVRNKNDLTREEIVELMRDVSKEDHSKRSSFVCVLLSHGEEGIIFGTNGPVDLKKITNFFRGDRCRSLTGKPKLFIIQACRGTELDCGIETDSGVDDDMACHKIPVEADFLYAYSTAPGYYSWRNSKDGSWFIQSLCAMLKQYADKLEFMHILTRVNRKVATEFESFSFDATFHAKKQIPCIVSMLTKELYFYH

T3: caspase-6 (UniProt P55212 24-293, limits assumed)
T3 sequence (looked up): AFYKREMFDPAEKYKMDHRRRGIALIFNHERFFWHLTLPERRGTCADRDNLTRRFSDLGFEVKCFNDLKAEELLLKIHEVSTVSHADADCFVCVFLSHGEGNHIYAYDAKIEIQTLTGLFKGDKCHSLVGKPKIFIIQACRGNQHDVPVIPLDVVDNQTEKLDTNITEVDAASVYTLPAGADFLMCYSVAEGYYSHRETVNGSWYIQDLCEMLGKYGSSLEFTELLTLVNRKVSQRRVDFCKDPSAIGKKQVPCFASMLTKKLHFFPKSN

T4: schistosome legumain SmAE (Schistosoma mansoni asparaginyl endopeptidase) (Schistosoma mansoni, UniProt P09841 32-291)
T4 sequence (looked up): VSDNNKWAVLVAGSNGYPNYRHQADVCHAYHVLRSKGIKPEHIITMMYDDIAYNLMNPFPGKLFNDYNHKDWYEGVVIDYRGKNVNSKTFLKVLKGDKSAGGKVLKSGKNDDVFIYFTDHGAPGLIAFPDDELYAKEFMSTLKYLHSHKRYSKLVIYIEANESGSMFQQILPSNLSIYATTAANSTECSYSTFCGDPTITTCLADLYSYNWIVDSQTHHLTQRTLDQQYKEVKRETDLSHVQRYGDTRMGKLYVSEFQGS


How the values were obtained:
Test in all cases: cell-based or functional assay
[1] = target: T1, autolytically stable caspase-1 variant …
[2] = target: T2, caspase-3
[3] = target: T3, caspase-6
[4] = target: T4, schistosome legumain SmAE (Schistosoma …)
[5] = target: porcine pepsin (porcine, UniProt P00791 60-385)
[6] = target: human cathepsin D (human, UniProt P07339 65-412)
[7] = target: plasmepsin 2 (from P. falciparum) (P. falciparum, UniProt P46925 125-453, limits assumed)
[8] = target: secreted aspartic proteinase 2 (SAP-2) from Candida albicans (Candida albicans)
[9] = target: HIV-1 protease (HIV-1)

human cathepsin D, sequence (P07339 65-412 limits assumed): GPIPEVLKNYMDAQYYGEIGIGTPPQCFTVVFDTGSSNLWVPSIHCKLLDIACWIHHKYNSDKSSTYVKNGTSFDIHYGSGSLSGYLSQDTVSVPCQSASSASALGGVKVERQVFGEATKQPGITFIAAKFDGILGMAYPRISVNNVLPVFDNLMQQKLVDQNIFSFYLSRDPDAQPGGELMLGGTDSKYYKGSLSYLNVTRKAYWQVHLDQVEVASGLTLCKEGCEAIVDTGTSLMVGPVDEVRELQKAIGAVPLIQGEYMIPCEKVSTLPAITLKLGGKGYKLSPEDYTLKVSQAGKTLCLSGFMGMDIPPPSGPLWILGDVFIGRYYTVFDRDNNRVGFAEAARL
porcine pepsin, sequence (P00791 60-385 limits assumed): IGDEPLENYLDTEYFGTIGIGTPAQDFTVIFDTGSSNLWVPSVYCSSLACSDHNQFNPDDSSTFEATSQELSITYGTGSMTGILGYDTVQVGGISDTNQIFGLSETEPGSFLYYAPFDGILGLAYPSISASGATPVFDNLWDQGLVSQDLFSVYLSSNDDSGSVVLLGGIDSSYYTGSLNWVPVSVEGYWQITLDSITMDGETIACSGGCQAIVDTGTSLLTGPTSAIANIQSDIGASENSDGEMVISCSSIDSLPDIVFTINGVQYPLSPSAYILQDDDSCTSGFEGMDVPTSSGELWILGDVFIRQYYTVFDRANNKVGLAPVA
plasmepsin 2 (from P. falciparum), sequence (P46925 125-453 limits assumed): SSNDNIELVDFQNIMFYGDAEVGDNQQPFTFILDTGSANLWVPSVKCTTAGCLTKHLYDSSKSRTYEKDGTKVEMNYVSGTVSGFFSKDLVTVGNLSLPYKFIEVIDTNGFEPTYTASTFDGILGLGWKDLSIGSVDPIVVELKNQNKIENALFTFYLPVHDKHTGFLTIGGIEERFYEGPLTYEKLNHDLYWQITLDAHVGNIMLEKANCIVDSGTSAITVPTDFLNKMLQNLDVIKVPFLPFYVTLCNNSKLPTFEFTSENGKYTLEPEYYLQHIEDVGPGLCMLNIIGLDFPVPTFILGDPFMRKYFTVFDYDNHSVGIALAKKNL

Binder | k2 [2] | k2 [3] | IC50 [4] | further results
PhPr-Val-Ala-[AAsp]-{(2S,3S)‑EP‑CON(CH2CH2CH2CH3)2} [PhPr-Val-Ala-AAsp-(2S,3S)-EP-CON(CH2CH2CH2CH3)2] | 520 M⁻¹ s⁻¹ | 53 M⁻¹ s⁻¹ |  | k2 [1]: 26200 M⁻¹ s⁻¹
Cbz-Ala-Ala-[AAsn]-{trans‑EP-Ph‑4‑Cl} (reading uncertain; also: printed as Cbz-Ala-Ala-AAsn-(trans)-EP-Ph-4-Cl) [Cbz-Ala-Ala-AAsn-(trans)-EP-Ph-4-Cl] |  |  | 90 nM | 
PhPr-Val-Ala-[AAsp]-{(2S,3S)‑EP‑CON(CH2Ph)2} [PhPr-Val-Ala-AAsp-(2S,3S)-EP-CON(CH2Ph)2] | 830 M⁻¹ s⁻¹ | 145 M⁻¹ s⁻¹ |  | k2 [1]: 101000 M⁻¹ s⁻¹
Cbz-IET[azaAsp]-{(2S,3S)‑EP‑CON(CH3)CH2Ph} [Cbz-Ile-Glu-Thr-AAsp-(2S,3S)-EP-CON(CH3)CH2Ph] | 4780 M⁻¹ s⁻¹ | 47700 M⁻¹ s⁻¹ |  | 
PhPr-Val-Ala-[AAsp]-{(2S,3S)‑EP‑CON(CH3)CH2Ph} [PhPr-Val-Ala-AAsp-(2S,3S)-EP-CON(CH3)CH2Ph] | 1950 M⁻¹ s⁻¹ | 136 M⁻¹ s⁻¹ |  | 
Cbz-IET[azaAsp]-{(2S,3S)‑EP‑CON(CH2Ph)2} [Cbz-Ile-Glu-Thr-AAsp-(2S,3S)-EP-CON(CH2Ph)2] | 3550 M⁻¹ s⁻¹ | 32000 M⁻¹ s⁻¹ |  | 
Cbz-Ala-Ala-[azaAsn]-{(2S,3S)‑EP‑COOEt} [Cbz-Ala-Ala-AAsn-(2S, 3S)-EP-COOEt] |  |  | 53 nM | inhibition of substrate hydrolysis [5]: < 20 % inhibition; inhibition of substrate hydrolysis [6]: < 20 % inhibition; inhibition of substrate hydrolysis [7]: < 20 % inhibition; inhibition of substrate hydrolysis [8]: < 20 % inhibition; inhibition of substrate hydrolysis [9]: < 20 % inhibition
Cbz-Ala-Ala-[AAsn]-{(S,S)‑EP-CON(CH3)CH2Ph} (reading uncertain; also: printed as Cbz-Ala-Ala-AAsn-(S, S)-EP-CON(CH3)CH2Ph) [Cbz-Ala-Ala-AAsn-(S, S)-EP-CON(CH3)CH2Ph] |  |  | 63 nM | 
Cbz-Ala-Ala-[AAsn]-{trans‑EP-CH2CH2Ph} (reading uncertain; also: printed as Cbz-Ala-Ala-AAsn-(trans)-EP-CH2CH2Ph) [Cbz-Ala-Ala-AAsn-(trans)-EP-CH2CH2Ph] |  |  | 70 nM | 
